The record followed here is publication doi:10.1101/2024.03.08.584095, “LPOR and the membranes – evolutionary pathway towards prolamellar body formation” (bioRxiv, 2024).

The data set concerns the molecule itself. Kind of data set: negative-stain electron microscopy; purified SynPOR with PG lipids and either Chlide + NADPH or Pchlide + NADP+; search for large oligomers; 37 mM sodium phosphate pH 7.1, 225 mM NaCl, 150 mM imidazole, 5 mM beta-mercaptoethanol, 25% glycerol.

B1: light-dependent protochlorophyllide oxidoreductase from Synechocystis (SynPOR) (enzyme, UniProt Q59987 1-322, looked up)
chain: MEQPMKPTVIITGASSGVGLYGAKALIDKGWHVIMACRNLDKTQKVADELGFPKDSYTIIKLDLGYLDSVRRFVAQFRELGRPLKALVCNAAVYFPLLDEPLWSADDYELSVATNHLGHFLLCNLLLEDLKACPDADKRLIILGTVTANSKELGGKIPIPAPPDLGNFEGFEAGFKKPIAMINNKKFKSGKAYKDSKLCNMLTTRELHRRFHQETGIVFNSLYPGCVADTPLFRNHYSLFRTIFPWFQKNVTKGYVSQELAGERVAMVVADDKFKDSGVHWSWGNRQQAGREAFVQELSEQGSDAQKAQRMWDLSEKLVGLV
notes: light-dependent protochlorophyllide oxidoreductase (SynPOR), Synechocystis, Uniprot Q59987; The reaction buffer holds 150 mM imidazole, so a His tag is likely (surmise); In the assay it stood with PG liposomes, pigment (Pchlide or Chlide) and NADP+ or NADPH; also called cyanobacterial LPOR; LPOR
As for B1, the binding result is “binds”.
